Results published in publication PMC3229523, “Identification of Lactoferricin B Intracellular Targets Using an Escherichia coli Proteome Chip” (PLoS ONE, 2011).
Ends that are not written are not given here. * marks the point of attachment. Biotin = O=C1N[C@H]2[C@H](CS[C@H]2CCCCC(=O)*)N1

Key:
Test in all cases: peptide or protein array; E. coli proteome chip: purified His-tagged proteins printed in duplicate on Fullmoon slides, blocked with 1% BSA; 10 nM N-terminal biotinylated LfcinB with 1% BSA, room temperature, 1 h; detected with DyLight 649-labeled streptavidin, ratio to DyLight 549-labeled anti-His antibody; ProCAT normalisation, local cut-off; triplicate chips
Details in all cases: both partners purified
YpdH = target: T1, YpdH (E. coli K-12, UniProt P69808 1-108)
T1 construct: YpdH, E. coli K-12
T1 sequence (looked up): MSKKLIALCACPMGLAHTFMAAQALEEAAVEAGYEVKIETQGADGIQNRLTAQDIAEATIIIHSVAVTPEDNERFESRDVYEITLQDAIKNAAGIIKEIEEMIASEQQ

YgfJ = target: T2, YgfJ (E. coli K-12, UniProt Q46810 1-192)
T2 construct: YgfJ, E. coli K-12
T2 sequence (looked up): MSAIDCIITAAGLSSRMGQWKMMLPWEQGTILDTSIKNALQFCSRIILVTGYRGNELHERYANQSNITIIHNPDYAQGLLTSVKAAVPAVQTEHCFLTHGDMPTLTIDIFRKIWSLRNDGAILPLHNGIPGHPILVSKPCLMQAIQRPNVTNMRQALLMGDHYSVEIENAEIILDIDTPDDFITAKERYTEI

RffH = target: T3, RffH (E. coli K-12, UniProt P61887 1-293)
T3 construct: RffH, E. coli K-12
T3 sequence (P61887 whole entry): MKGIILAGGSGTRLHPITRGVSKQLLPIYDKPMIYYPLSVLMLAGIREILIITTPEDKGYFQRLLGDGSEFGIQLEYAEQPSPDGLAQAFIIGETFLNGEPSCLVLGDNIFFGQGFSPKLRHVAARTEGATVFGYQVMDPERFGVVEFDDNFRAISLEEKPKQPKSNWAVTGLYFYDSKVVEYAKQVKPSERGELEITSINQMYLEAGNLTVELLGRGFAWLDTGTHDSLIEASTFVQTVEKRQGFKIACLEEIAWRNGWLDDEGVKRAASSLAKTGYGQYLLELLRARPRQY

YbaE = target: T4, YbaE (E. coli K-12, UniProt P46890 1-566)
T4 construct: YbaE, E. coli K-12
T4 sequence (looked up): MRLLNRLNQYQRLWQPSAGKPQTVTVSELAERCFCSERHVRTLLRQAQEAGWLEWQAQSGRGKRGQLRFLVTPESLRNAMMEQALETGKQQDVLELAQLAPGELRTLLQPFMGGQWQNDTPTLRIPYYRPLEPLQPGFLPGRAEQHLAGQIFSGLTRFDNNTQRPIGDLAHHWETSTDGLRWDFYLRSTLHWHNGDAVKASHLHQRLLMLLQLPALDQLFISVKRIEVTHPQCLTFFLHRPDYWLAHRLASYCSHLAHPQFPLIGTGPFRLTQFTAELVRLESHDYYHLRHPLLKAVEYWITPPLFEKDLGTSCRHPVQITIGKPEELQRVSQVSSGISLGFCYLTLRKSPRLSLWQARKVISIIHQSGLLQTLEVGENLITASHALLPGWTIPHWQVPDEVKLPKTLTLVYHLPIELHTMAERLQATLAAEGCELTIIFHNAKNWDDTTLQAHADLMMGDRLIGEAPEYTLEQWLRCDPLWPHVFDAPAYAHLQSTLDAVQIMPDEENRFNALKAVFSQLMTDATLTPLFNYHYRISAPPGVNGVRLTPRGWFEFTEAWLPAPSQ

HisA = target: T5, HisA (E. coli K-12, UniProt P10371 1-245)
T5 construct: HisA, E. coli K-12
T5 sequence (P10371 whole entry): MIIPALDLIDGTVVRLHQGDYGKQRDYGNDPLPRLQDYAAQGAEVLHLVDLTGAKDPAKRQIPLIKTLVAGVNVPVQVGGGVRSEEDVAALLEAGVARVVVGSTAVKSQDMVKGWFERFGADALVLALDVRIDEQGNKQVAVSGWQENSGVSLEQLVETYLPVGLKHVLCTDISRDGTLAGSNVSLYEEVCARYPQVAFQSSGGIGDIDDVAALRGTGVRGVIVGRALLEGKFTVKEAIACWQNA

GlyQ = target: T6, GlyQ (E. coli K-12, UniProt P00960 1-303)
T6 construct: GlyQ, E. coli K-12
T6 sequence (looked up): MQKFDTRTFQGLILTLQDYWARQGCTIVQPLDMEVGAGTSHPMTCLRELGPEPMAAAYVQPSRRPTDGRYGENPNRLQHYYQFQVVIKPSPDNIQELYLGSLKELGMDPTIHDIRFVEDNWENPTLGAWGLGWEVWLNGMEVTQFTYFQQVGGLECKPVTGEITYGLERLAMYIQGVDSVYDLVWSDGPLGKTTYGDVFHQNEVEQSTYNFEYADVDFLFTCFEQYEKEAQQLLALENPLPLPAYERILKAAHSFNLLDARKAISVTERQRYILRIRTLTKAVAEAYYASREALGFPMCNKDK

Measured: binding result

B1: N-terminal biotinylated Lactoferricin B (peptide, UniProt P24627 36-60, looked up)
peptide: Biotin-FKCRRWQWRMKKLGAPSITCVRRAF
modifications: ends and bridges not checked
notes: lactoferricin B (LfcinB), cationic antimicrobial peptide of 25 amino acids; also called biotinylated LfcinB; biotin-labeled LfcinB; source: bought: Kelowna Inc
binds: YpdH | YgfJ | RffH | YbaE | HisA | GlyQ
